{
  "source": "patent US20250353910A1",
  "about": "(INVENRA, published 2025)",
  "binders": {"B1": {"name": "Exemplary Bispecific Antibody 1 (B7H3 x GD2) (bispecific antibody)", "chain 1": "not shown", "chain 2": "EVQLVESGGGLVQPGGSLRLSCAASGFTFSTYYIHWVRQAPGKGLEWVAWIHPSGKYTYYADSVKGRFTISADTSKNTAYLQMNSLRAEDTAVYYCARHYQVGAMDYWGQGTLVTVSSAQPREPQVYTLPPCRDWLTKNQVSLTCLVKGFYPSDIAVEWESNGQPENNYKTTPPVLDSDGSFFLYSKLTVDKSRWQQGNVFSCSVMHEALHNHYTQKSLSLSPGK", "chain 3": "not shown", "chain 4": "EVQLVESGGGLVQPGGSLRLSCAASGSSFTGYNMNWVRQAPGKGLEWVAAIDPYYGGTYYADSVKGRFTISADTSKNTAYLQMNSLRAEDTAVYYCASGMEYWGQGTLVTVSSASTKGPSVFPLAPSSKSTSGGTAALGCLVKDYFPEPVTVSWNSGALTSGVHTFPAVLQSSGLYSLSSVVTVPSSSLGTQTYICNVNHKPSNTKVDKKVEPKSC", "notes": "B7H3 arm on chains 1 and 2, GD2 arm on chains 3 and 4; also called Ex. bsAb; 1×1 bispecific antibody"}},
  "key": {"[1]": {"molecular_target": "T1, Recombinant Rat B7-H3 Fc Chimera Protein (R&D Systems Cat #10610-B3-050) (rat, UniProt Q7TPB4 29-244)", "T1 construct": "Bought Fc chimera; not shown: Fc part of the chimera", "T1 sequence (looked up)": "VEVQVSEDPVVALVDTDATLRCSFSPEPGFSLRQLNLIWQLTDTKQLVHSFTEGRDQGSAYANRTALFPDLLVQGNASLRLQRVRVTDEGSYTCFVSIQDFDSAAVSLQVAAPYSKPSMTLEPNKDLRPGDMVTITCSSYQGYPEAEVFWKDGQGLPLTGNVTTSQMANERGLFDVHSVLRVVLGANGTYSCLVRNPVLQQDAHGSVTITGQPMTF", "experiment": "BLI (Octet), bispecific antibody captured on biosensor, soluble antigen; via kinetics", "experimental": "(§1) Soluble antigens (e.g., B7H3 or GD2) were then added to the system and binding was measured."}, "[2]": {"molecular_target": "T2, Cynomolgus B7H3, His-tagged protein (AcroBiosystems Cat #B73-C52Ha) (cynomolgus)", "T2 construct": "Bought soluble protein; also called Cyno B7H3", "experiment": "BLI (Octet), bispecific antibody captured on biosensor, soluble antigen; via kinetics", "experimental": "as §1"}, "[3]": {"molecular_target": "T1, Recombinant Rat B7-H3 Fc Chimera …", "experiment": "BLI (Octet), bispecific antibody captured on biosensor, soluble antigen", "experimental": "as §1"}, "[4]": {"molecular_target": "T2, Cynomolgus B7H3, His-tagged protein …", "experiment": "BLI (Octet), bispecific antibody captured on biosensor, soluble antigen", "experimental": "as §1"}},
  "data": [
    {"binder": "B1", "values": [
      {"measurement": "Kd", "setting": "[1]", "result": 6.88, "unit": "nM"},
      {"measurement": "Kd", "setting": "[2]", "result": 1.16, "unit": "nM"},
      {"measurement": "koff", "setting": "[3]", "result": 0.00137, "unit": "s⁻¹"},
      {"measurement": "kon", "setting": "[3]", "result": 199000, "unit": "M⁻¹ s⁻¹"},
      {"measurement": "koff", "setting": "[4]", "result": 0.000239, "unit": "s⁻¹"},
      {"measurement": "kon", "setting": "[4]", "result": 206000, "unit": "M⁻¹ s⁻¹"}
    ]}
  ]
}
